B1: equine IgG7 K311E mutant (antibody, part only; not given: variable domains, not shown: another chain or arm of the molecule)
constant: ASTTAPKVFPLASHSAATSGSTVALGCLVSSYFPEPVTVSWNSGALTSGVHTFPSVLQSSGLYSLSSMVTVPASSLKSQTYICNVAHPASSTKVDKKIVIKECGGCPTCPECLSVGPSVFIFPPKPKDVLMISRTPTVTCVVVDVGHDFPDVQFNWYVDGVETHTATTEPKQEQNNSTYRVVSILAIQHEDWLSGKEFKCKVNNQALPAPVQKTISKPTGQPREPQVYVLAPHRDELSKNKVSVTCLVKDFYPTDIDIEWKSNGQPEPETKYSTTPAQLDSDGSYFLYSKLTVETNRWQQGTTFTCAVMHEALHNHYTEKSVSKSPGK
B2: equine IgG7 K311Y mutant (antibody, part only; not given: variable domains, not shown: another chain or arm of the molecule)
constant: B1 constant with E190Y
B3: equine IgG7 A426P mutant (antibody, part only; not given: variable domains, not shown: another chain or arm of the molecule)
constant: B1 constant with E190K, A307P
B4: equine IgG7 A426L mutant (antibody, part only; not given: Variable domains, not shown: another chain or arm of the molecule)
constant: B1 constant with E190K, A307L
B5: equine IgG7 A426Q mutant (antibody, part only; not given: variable domains, not shown: another chain or arm of the molecule)
constant: B1 constant with E190K, A307Q
B6: equine IgG7 A426D mutant (antibody, part only; not given: variable domains, not shown: another chain or arm of the molecule)
constant: B1 constant with E190K, A307D
B7: equine IgG7 A426M mutant (antibody, part only; not given: variable domains, not shown: another chain or arm of the molecule)
constant: B1 constant with E190K, A307M
B8: equine IgG7 A426N mutant (antibody, part only; not given: Variable domains, not shown: another chain or arm of the molecule)
constant: B1 constant with E190K, A307N
B9: equine IgG7 A426K mutant (antibody, part only; not given: variable domains, not shown: another chain or arm of the molecule)
constant: B1 constant with E190K, A307K
B10: equine IgG7 A426S mutant (antibody, part only; not given: variable domains, not shown: another chain or arm of the molecule)
constant: B1 constant with E190K, A307S
B11: equine IgG7 M428F mutant (antibody, part only; not given: variable domains, not shown: another chain or arm of the molecule)
constant: B1 constant with E190K, M309F
B12: equine IgG7 K311R mutant (antibody, part only; not given: variable domains, not shown: another chain or arm of the molecule)
constant: B1 constant with E190R
B13: equine IgG7 N434E mutant (antibody, part only; not given: variable domains, not shown: another chain or arm of the molecule)
constant: B1 constant with E190K, N315E
B14: equine IgG7 N434D mutant (antibody, part only; not given: variable domains, not shown: another chain or arm of the molecule)
constant: B1 constant with E190K, N315D
B15: equine IgG7 N434H mutant (antibody, part only; not given: Variable domains, not shown: another chain or arm of the molecule; small tags and cut ends)
constant: B1 constant with E190K, N315H
B16: equine IgG7 K311T mutant (antibody, part only; not given: variable domains, not shown: another chain or arm of the molecule)
constant: B1 constant with E190T
B17: equine IgG7 N434A mutant (antibody, part only; not given: variable domains, not shown: another chain or arm of the molecule)
constant: B1 constant with E190K, N315A
B18: equine IgG7 M428R mutant (antibody, part only; not given: variable domains, not shown: another chain or arm of the molecule)
constant: B1 constant with E190K, M309R
B19: equine IgG7 K311L mutant (antibody, part only; not given: variable domains, not shown: another chain or arm of the molecule)
constant: B1 constant with E190L
B20: equine IgG7 M428S mutant (antibody, part only; not given: variable domains, not shown: another chain or arm of the molecule)
constant: B1 constant with E190K, M309S
B21: equine IgG7 K311G mutant (antibody, part only; not given: variable domains, not shown: another chain or arm of the molecule)
constant: B1 constant with E190G
B22: equine IgG7 M428E mutant (antibody, part only; not given: variable domains, not shown: another chain or arm of the molecule)
constant: B1 constant with E190K, M309E
B23: equine IgG7 A426C mutant (antibody, part only; not given: variable domains, not shown: another chain or arm of the molecule)
constant: B1 constant with E190K, A307C
B24: equine IgG7 K311Q mutant (antibody, part only; not given: Variable domains, not shown: another chain or arm of the molecule)
constant: B1 constant with E190Q
B25: equine IgG7 M428H mutant (antibody, part only; not given: variable domains, not shown: another chain or arm of the molecule)
constant: B1 constant with E190K, M309H
B26: equine IgG7 A426I mutant (antibody, part only; not given: variable domains, not shown: another chain or arm of the molecule)
constant: B1 constant with E190K, A307I
B27: equine IgG7 A426F mutant (antibody, part only; not given: variable domains, not shown: another chain or arm of the molecule)
constant: B1 constant with E190K, A307F
B28: equine IgG7 A426E mutant (antibody, part only; not given: variable domains, not shown: another chain or arm of the molecule)
constant: B1 constant with E190K, A307E
B29: equine IgG7 M428K mutant (antibody, part only; not given: variable domains, not shown: another chain or arm of the molecule)
constant: B1 constant with E190K, M309K
B30: equine IgG7 K311S mutant (antibody, part only; not given: variable domains, not shown: another chain or arm of the molecule)
constant: B1 constant with E190S
B31: equine IgG7 N434G mutant (antibody, part only; not given: variable domains, not shown: another chain or arm of the molecule; small tags and cut ends)
constant: B1 constant with E190K, N315G
B32: equine IgG7 M428I mutant (antibody, part only; not given: variable domains, not shown: another chain or arm of the molecule)
constant: B1 constant with E190K, M309I
B33: equine IgG7 A426T mutant (antibody, part only; not given: Variable domains, not shown: another chain or arm of the molecule)
constant: B1 constant with E190K, A307T
B34: equine IgG7 M428W mutant (antibody, part only; not given: variable domains, not shown: another chain or arm of the molecule)
constant: B1 constant with E190K, M309W
B35: equine IgG7 M428C mutant (antibody, part only; not given: Variable domains, not shown: another chain or arm of the molecule)
constant: B1 constant with E190K, M309C
B36: equine IgG7 K311M mutant (antibody, part only; not given: variable domains, not shown: another chain or arm of the molecule)
constant: B1 constant with E190M
B37: equine IgG7 M428D mutant (antibody, part only; not given: variable domains, not shown: another chain or arm of the molecule)
constant: B1 constant with E190K, M309D
B38: equine IgG7 N434C mutant (antibody, part only; not given: variable domains, not shown: another chain or arm of the molecule)
constant: B1 constant with E190K, N315C
B39: equine IgG7 K311N mutant (antibody, part only; not given: variable domains, not shown: another chain or arm of the molecule)
constant: B1 constant with E190N
B40: equine IgG7 A426Y mutant (antibody, part only; not given: variable domains, not shown: another chain or arm of the molecule)
constant: B1 constant with E190K, A307Y
B41: equine IgG7 K311V mutant (antibody, part only; not given: variable domains, not shown: another chain or arm of the molecule)
constant: B1 constant with E190V
B42: equine IgG7 N434K mutant (antibody, part only; not given: variable domains, not shown: another chain or arm of the molecule; small tags and cut ends)
constant: B1 constant with E190K, N315K
B43: equine IgG7 K311W mutant (antibody, part only; not given: variable domains, not shown: another chain or arm of the molecule)
constant: B1 constant with E190W
B44: equine IgG7 A426W mutant (antibody, part only; not given: variable domains, not shown: another chain or arm of the molecule)
constant: B1 constant with E190K, A307W
B45: equine IgG7 A426R mutant (antibody, part only; not given: Variable domains, not shown: another chain or arm of the molecule)
constant: B1 constant with E190K, A307R
B46: equine IgG7 K311H mutant (antibody, part only; not given: Variable domains, not shown: another chain or arm of the molecule)
constant: B1 constant with E190H
B47: equine IgG7 A426H mutant (antibody, part only; not given: variable domains, not shown: another chain or arm of the molecule)
constant: B1 constant with E190K, A307H
B48: equine IgG7 A426G mutant (antibody, part only; not given: variable domains, not shown: another chain or arm of the molecule)
constant: B1 constant with E190K, A307G
B49: equine IgG7 M428G mutant (antibody, part only; not given: variable domains, not shown: another chain or arm of the molecule)
constant: B1 constant with E190K, M309G
B50: equine IgG7 A426V mutant (antibody, part only; not given: variable domains, not shown: another chain or arm of the molecule)
constant: B1 constant with E190K, A307V
B51: equine IgG7 N434R mutant (antibody, part only; not given: Variable domains, not shown: another chain or arm of the molecule)
constant: B1 constant with E190K, N315R
B52: equine IgG7 K311I mutant (antibody, part only; not given: variable domains, not shown: another chain or arm of the molecule)
constant: B1 constant with E190I
B53: equine IgG7 K311F mutant (antibody, part only; not given: variable domains, not shown: another chain or arm of the molecule; small tags and cut ends)
constant: B1 constant with E190F
B54: equine IgG7 N434F mutant (antibody, part only; not given: Variable domains, not shown: another chain or arm of the molecule; small tags and cut ends)
constant: B1 constant with E190K, N315F
B55: equine IgG7 N434P mutant (antibody, part only; not given: Variable domains, not shown: another chain or arm of the molecule)
constant: B1 constant with E190K, N315P
B56: equine IgG7 M428Q mutant (antibody, part only; not given: variable domains, not shown: another chain or arm of the molecule)
constant: B1 constant with E190K, M309Q
B57: equine IgG7 M428L mutant (antibody, part only; not given: Variable domains, not shown: another chain or arm of the molecule)
constant: B1 constant with E190K, M309L

Numbering of substitutions follows the chain as printed. Names and notes keep the numbering of the source.

The target of this assay is equine FcRn (large alpha subunit p51) in complex with equine beta-2-microglobulin (equine) (UniProt F6XZ61). Description: SPR (Biacore), pH 6.
Chain of UniProt F6XZ61 (F6XZ61 entry or part of it, one chain of several): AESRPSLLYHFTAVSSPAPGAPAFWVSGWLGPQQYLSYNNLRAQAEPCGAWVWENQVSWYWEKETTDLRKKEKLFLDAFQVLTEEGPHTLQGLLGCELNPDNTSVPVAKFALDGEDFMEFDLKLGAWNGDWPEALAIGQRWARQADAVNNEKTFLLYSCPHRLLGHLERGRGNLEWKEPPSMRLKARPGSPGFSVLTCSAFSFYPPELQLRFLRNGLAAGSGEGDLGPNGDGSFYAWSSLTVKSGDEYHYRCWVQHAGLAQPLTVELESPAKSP
The molecule B1 showed a Kd of 60 nM.

Regarding B2, the Kd was determined as 18.9 nM. Against the preceding molecule, the Kd is about 3.2-fold lower.

Molecule B3 returned a Kd of 23.2 nM.

Regarding B4, the dissociation constant Kd stood at 15.6 nM.

As for B5, the dissociation constant Kd came to 18.6 nM.

Turning to B6, the Kd stood at 18.9 nM.

Turning to B7, the Kd was 22.7 nM.

B8: the Kd stood at 15.8 nM.

With B9, the Kd was 17.8 nM.

On to B10, for which the Kd was 40.4 nM.

As for B11, the Kd is 23.9 nM. This Kd is about 1.7-fold lower than that of the molecule before.

In turn, B12 registered a Kd of 11.8 nM.

B13 showed a Kd of 6.1 nM.

In turn, B14 registered a Kd of 1.1 nM. This Kd is about 5.5-fold lower than that of the molecule before.

Molecule B15 came in with a Kd of 25.3 nM.

As to B16, the Kd is 19.4 nM.

For B17, the Kd worked out at 36.4 nM.

Turning to B18, the Kd is 1.2 nM.

Molecule B19 had a Kd of 17.3 nM.

With B20, the Kd is 5.8 nM.

Regarding B21, the Kd amounted to 20.9 nM.

The molecule B22 gave a Kd of 39.8 nM.

For B23, the Kd came out at 14.4 nM.

In the case of B24, the Kd stood at 39.5 nM.

Turning to B25, the Kd came to 165 nM.

For B26, the Kd came out at 12.6 nM.

For the molecule B27, the Kd came to 13.2 nM.

As for B28, the dissociation constant Kd was found to be 13.4 nM.

The molecule B29 displayed a Kd of 63.5 nM.

B30 had a Kd of 27.6 nM.

B31: the Kd was determined as 7400 nM.

In turn, B32 showed a Kd of 240 nM.

The molecule B33 came in with a Kd of 26.5 nM.

Molecule B34 displayed a Kd of 6.6 nM.

For the molecule B35, the Kd is 14600 nM.

In the case of B36, the dissociation constant Kd was found to be 10.4 nM.

With B37, the dissociation constant (Kd) was found to be 2000 nM.

Take B38: the Kd is 2.5 nM.

As to B39, the Kd came out at 38 nM.

The molecule B40 had an equilibrium dissociation constant (Kd) of 21.1 nM.

In turn, B41 displayed a Kd of 21.3 nM.

B42 displayed a Kd of 31.7 nM.

Consider B43, for which the Kd was 22.1 nM. The Kd values of the last two molecules are within 1.5-fold of each other.

Molecule B44 gave a Kd of 24.1 nM.

The molecule B45 came in with a Kd of 35 nM. This Kd and that of the molecule before are within 1.5-fold of each other.

Turning to B46, the Kd was 19 nM.

As to B47, the dissociation constant (Kd) turned out to be 18.4 nM.

Take B48: the Kd was 13.6 nM.

B49 came in with a Kd of 96.9 nM.

As to B50, the Kd was 23.3 nM.

In turn, B51 displayed a Kd of 273 nM.

As to B52, the Kd was found to be 15.1 nM.

The molecule B53 came in with a Kd of 20.5 nM. The Kd values of the last two molecules are within 1.5-fold of each other.

Consider B54, for which the dissociation constant (Kd) came out at 7.4 nM.

In turn, B55 yielded an equilibrium dissociation constant (Kd) of 194 nM.

The molecule B56 displayed a Kd of 20 nM. This Kd is about 9.7-fold lower than that of the molecule before.

Regarding B57, the Kd was 10.5 nM.

The values are drawn from patent US20260070987A1.
